In article PMC6773690, “Scribble co-operatively binds multiple α1D-adrenergic receptor C-terminal PDZ ligands” (Scientific Reports, 2019):
Blank lines part the entries; values can stand above or below the molecule they belong to. Ends that are not written are not given here. BG‑782 = not defined here

Tests used:
[1] = target: biotin-labeled peptide containing the last 20 amino acids of the α1D-adrenergic receptor C-terminus (human) (UniProt P25100); experiment: BLI; Octet Red 96; 50 nM biotin-labeled α1D-CT peptide immobilised on streptavidin probes, then biocytin; serial dilutions of purified PDZ proteins as analytes until steady state; 20 mM Tris-HCl pH 8.0, 200 mM NaCl, 0.1% bovine serum albumin
[2] = target: GST-SCRIB ΔPDZ34 (C-terminal truncation mutant missing PDZ3 and PDZ4); experiment: pull-down; SNAP GST-pulldown: 1 μM GST-tagged SCRIB proteins on glutathione agarose beads with serial dilutions of BG-782-labeled SNAP-α1D-CT, 1 h at 4 °C; washes 20 mM Tris-HCl pH 8.0, 200 mM NaCl, 0.05% NP-40; PAGE NIR
[3] = target: GST-SCRIB ΔPDZ4 (C-terminal truncation mutant missing PDZ4); experiment: as above
[4] = target: GST-SCRIB containing all 4 PDZ domains (WT); experiment: BLI; reverse BLI: GST-SCRIB immobilised on anti-GST probes, serial dilutions of biotin-labeled α1D-CT as analyte; 20 mM Tris-HCl pH 8.0, 200 mM NaCl, 0.1% bovine serum albumin
GST-SCRIB PDZ domain 4 = GST-SCRIB PDZ domain 4 (UniProt Q14160 992-1203); experiment: BLI; Octet Red 96; 50 nM biotin-labeled α1D-CT peptide immobilised on streptavidin probes, then biocytin; serial dilutions of purified PDZ proteins as analytes until steady state; 20 mM Tris-HCl pH 8.0, 200 mM NaCl, 0.1% bovine serum albumin; conditions: both partners purified
[5] = target: T1, α1-syntrophin (SNTA) PDZ domain (UniProt Q13424 87-170); experiment: as above; conditions: both partners purified
T1 construct: α1-syntrophin (SNTA), PDZ domain; The methods elute GST proteins with glutathione; TEV cleavage is told only for crystallography; source: E. coli Rosetta (DE3), purified (glutathione agarose)
T1 sequence (looked up): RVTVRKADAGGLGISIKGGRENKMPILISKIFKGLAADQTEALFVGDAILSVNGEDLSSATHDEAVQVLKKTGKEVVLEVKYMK

[6] = target: T2, calcium/calmodulin-dependent serine protein kinase (CASK) PDZ domain (UniProt O14936 489-564); experiment: as above; conditions: both partners purified
T2 construct: calcium/calmodulin-dependent serine protein kinase (CASK), PDZ domain; The methods elute GST proteins with glutathione; TEV cleavage is told only for crystallography; source: E. coli Rosetta (DE3), purified (glutathione agarose)
T2 sequence (looked up): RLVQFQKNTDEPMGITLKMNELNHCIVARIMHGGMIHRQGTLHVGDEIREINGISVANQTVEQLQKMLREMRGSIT

GST-SCRIB PDZ domain 1 = target: T3, GST-SCRIB PDZ domain 1 (UniProt Q14160 728-815); experiment: as above; conditions: both partners purified
T3 construct: scribble (SCRIB), PDZ domain 1 alone; also called SCRIB PDZ1; PDZ1; source: E. coli Rosetta (DE3), purified (glutathione agarose); not shown: GST, N-terminal, kept

GST-SCRIB PDZ domain 2 = target: T4, GST-SCRIB PDZ domain 2 (UniProt Q14160 862-950); experiment: as above; conditions: both partners purified
T4 construct: scribble (SCRIB), PDZ domain 2 alone; also called SCRIB PDZ2; PDZ2; source: E. coli Rosetta (DE3), purified (glutathione agarose); not shown: GST, N-terminal, kept
T4 sequence (looked up): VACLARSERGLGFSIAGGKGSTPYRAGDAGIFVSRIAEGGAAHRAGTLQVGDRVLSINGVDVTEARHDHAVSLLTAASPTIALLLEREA

GST-SCRIB PDZ domain 3 = target: T5, GST-SCRIB PDZ domain 3 (UniProt Q14160 1004-1093); experiment: as above; conditions: both partners purified
T5 construct: scribble (SCRIB), PDZ domain 3 alone; also called SCRIB PDZ3; PDZ3; source: E. coli Rosetta (DE3), purified (glutathione agarose); not shown: GST, N-terminal, kept
T5 sequence (looked up): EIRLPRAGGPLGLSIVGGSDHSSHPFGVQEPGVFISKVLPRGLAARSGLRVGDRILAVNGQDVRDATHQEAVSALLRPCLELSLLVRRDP

T3 sequence (Q14160 728-815): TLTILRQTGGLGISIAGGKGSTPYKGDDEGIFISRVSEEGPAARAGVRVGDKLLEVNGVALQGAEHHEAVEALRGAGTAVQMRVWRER

Kd [1]: 790 nM
Molecule: human discs large MAGUK scaffold protein 1 (DLG1) PDZ domains (domain or fragment)

Kd [1]: 340 nM
Molecule: SCRIB PDZ3 and PDZ4 (PDZ34) (domain or fragment)

Kd [1]: 320 nM
Molecule: GST-SCRIB H1170A (PDZ4 mutation in SCRIB with all 4 PDZ domains) (domain or fragment)

Kd [1]: 160 nM
Molecule: GST-SCRIB ΔPDZ34 (C-terminal truncation mutant missing PDZ3 and PDZ4) (domain or fragment)

Kd [1]: 7340 nM
Molecule: GST-SCRIB H793A (PDZ1 mutation in SCRIB with all 4 PDZ domains) (domain or fragment)

Kd [1]: 140 nM
Molecule: GST-SCRIB ΔPDZ4 (C-terminal truncation mutant missing PDZ4) (domain or fragment)

Kd [1]: 70 nM
Molecule: GST-SCRIB containing all 4 PDZ domains (WT) (domain or fragment)

maximal binding response, % of SCRIB WT (% of SCRIB WT) [2]: 34 | maximal binding response, % of SCRIB WT (% of SCRIB WT) [3]: 48
Molecule: {BG‑782-SNAP tag}-QAYELADYSNLRETDI (not fully specified; reading uncertain)

Kd [4]: 76 nM | Kd (GST-SCRIB PDZ domain 4): 1140 nM | Kd [5]: 560 nM | Kd [6]: 1150 nM | Kd (GST-SCRIB PDZ domain 1): 1930 nM | Kd (GST-SCRIB PDZ domain 2): 14900 nM | Kd (GST-SCRIB PDZ domain 3): 44200 nM
B1: biotin-labeled peptide containing the last 20 amino acids of the α1D-adrenergic receptor C-terminus (peptide, UniProt P25100 553-572, looked up)
peptide: GATCQAYELADYSNLRETDI
modifications: also: biotin label (position not given here)
notes: α1D-adrenergic receptor, distal (last) 20 amino acids of the C-terminus; also called α1D-CT; α1D-AR C-terminal PDZ ligand; source: synthetic peptide, bought: BioMatik
